Measurements: PMC12285911 (Nature Structural & Molecular Biology, 2025)
Blank lines part the entries; values can stand above or below the binder they belong to.

What was measured:
Conditions in all cases: both partners purified
[1] = biological target: T1, FAT10 (human leukocyte antigen-F-adjacent transcript 10), wild type, full length, unlabeled (human); experiment: SEC; NUB1 (50 µM) incubated with FAT10 (75 µM) for 30 min on ice, Superdex 200 Increase 10/300; the single complex peak was pooled and run on SEC–MALS (60 mM HEPES pH 7.4, 50 mM NaCl, 50 mM KCl, 5% glycerol, 10 mM MgCl2, 0.5 mM TCEP)
T1 construct: also called wild-type FAT10; source: E. coli BL21*, purified (Ni-NTA, His–ULP1 cleavage, HiTrap SP, gel filtration); not shown: His, N-terminal, cleaved; Smt3, N-terminal, cleaved
T1 chain: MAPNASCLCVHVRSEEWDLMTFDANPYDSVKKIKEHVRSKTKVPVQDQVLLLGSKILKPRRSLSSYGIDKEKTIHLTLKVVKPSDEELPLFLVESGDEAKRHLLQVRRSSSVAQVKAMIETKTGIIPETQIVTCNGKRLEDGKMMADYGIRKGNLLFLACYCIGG

[2] = biological target: T2, Rpn1 (proteasomal receptor subunit of the 19S regulatory particle) (human (endogenous in HEK293), UniProt Q13200 1-908); experiment: cryo-EM structure; hs26S proteasome mixed with preincubated (20 min) FAT10–Eos + NUB1 complex in 20 mM HEPES pH 7.4, 25 mM NaCl, 25 mM KCl, 5 mM MgCl2, 2 mM ATP, for 30 s or 60 s before plunge-freezing; nonprocessing and processing states
T2 construct: Rpn1, subunit of the human 26S proteasome; stood in the experiment as a subunit of the whole hs26S proteasome; also called proteasomal Rpn1 subunit; source: endogenous, within the hs26S proteasome purified from HEK293 cells
T2 sequence (Q13200 whole entry): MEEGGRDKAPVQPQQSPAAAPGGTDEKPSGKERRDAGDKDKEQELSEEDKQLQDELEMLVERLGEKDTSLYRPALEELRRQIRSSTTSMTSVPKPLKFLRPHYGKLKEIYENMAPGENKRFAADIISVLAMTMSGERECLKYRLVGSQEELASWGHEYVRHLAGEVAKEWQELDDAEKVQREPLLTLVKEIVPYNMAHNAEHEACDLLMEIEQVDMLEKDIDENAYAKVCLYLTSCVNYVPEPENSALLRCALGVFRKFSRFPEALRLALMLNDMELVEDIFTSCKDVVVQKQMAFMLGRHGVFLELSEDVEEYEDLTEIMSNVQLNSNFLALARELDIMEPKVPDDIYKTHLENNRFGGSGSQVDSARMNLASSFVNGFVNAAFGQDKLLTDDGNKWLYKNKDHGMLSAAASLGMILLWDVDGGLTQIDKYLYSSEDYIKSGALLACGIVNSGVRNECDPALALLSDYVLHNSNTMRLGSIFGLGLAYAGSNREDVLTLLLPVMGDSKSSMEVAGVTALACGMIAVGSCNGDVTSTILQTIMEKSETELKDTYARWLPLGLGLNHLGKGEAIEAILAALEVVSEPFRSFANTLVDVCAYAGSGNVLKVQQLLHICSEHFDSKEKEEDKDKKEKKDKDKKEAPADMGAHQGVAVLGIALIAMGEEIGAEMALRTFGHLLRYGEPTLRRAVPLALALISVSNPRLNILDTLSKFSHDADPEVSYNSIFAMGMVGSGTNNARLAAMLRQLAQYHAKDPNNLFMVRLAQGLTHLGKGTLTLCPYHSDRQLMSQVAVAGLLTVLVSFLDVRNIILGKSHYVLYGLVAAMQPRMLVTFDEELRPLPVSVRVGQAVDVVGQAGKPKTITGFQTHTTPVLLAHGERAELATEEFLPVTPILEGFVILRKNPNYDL

[3] = biological target: T3, ^FAMFAT10 (GG–FAT10 N-terminally labeled with fluorescein amidite by sortase) (human, 5-FAM on the N terminus (5-FAM conjugated to the N terminus of the peptide …, attached by sortase)); experiment: fluorescence polarisation; titration: ^FAMFAT10 (100 nM) incubated with varying NUB1 concentrations on ice (45 min by the legends, 30 min by the methods), polarisation read in a 384-well plate preheated to 30 °C; the Kd is called approximate (some aggregation at higher NUB1 concentrations)
T3 construct: GG added to the N terminus of FAT10 for sortase labeling (scar left after Smt3 cleavage); also called GG–FAT10 (labeled); source: E. coli BL21*, purified; sortase-labeled, enriched on Ni-NTA, gel filtration; not shown: His, N-terminal, cleaved; Smt3, N-terminal, cleaved
T3 chain: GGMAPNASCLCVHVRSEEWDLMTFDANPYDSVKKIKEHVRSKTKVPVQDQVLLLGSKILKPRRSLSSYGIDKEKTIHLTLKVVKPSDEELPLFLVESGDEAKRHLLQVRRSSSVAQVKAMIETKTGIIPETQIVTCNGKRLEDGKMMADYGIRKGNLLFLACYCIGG

[4] = biological target: T3, ^FAMFAT10 (GG–FAT10 N-terminally …); experiment: fluorescence polarisation; kinetics: ^FAMFAT10 (20 nM) mixed with NUB1 (250–4,000 nM), polarisation over time, single exponentials, kobs against NUB1 concentration, kon by linear regression; 30 °C

stoichiometry N [1]: 1 | binding result [2]: binds | Kd [3]: 0.176 ± 0.0068 µM | kon [4]: 1600 ± 3000 M⁻¹ s⁻¹
B1: NUB1 (NEDD8 ultimate buster 1), wild type, full length (natural protein)
chain: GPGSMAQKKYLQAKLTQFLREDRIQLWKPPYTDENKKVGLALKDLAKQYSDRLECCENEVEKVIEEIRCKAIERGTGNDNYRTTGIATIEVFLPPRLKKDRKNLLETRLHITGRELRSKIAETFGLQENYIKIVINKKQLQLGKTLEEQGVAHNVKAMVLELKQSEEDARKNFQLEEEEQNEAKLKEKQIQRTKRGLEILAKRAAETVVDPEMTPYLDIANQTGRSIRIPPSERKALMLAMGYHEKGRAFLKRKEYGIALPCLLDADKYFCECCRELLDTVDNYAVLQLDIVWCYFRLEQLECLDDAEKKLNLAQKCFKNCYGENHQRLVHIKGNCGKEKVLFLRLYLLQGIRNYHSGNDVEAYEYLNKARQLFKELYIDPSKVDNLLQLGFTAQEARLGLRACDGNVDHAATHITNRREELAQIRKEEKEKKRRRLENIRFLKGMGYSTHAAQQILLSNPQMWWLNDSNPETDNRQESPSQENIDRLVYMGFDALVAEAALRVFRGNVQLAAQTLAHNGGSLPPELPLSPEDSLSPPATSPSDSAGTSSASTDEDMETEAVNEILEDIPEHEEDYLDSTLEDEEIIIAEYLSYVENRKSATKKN
notes: overhang left at the N terminus after removal of GST by precision (3C) protease; the shorter isoform, not NUB1L; codon-optimised synthetic gene in pGEX-6P-1; also called wild-type NUB1; source: E. coli BL21*, purified (GSH resin, GST–3C protease cleavage, gel filtration); not shown: GST, N-terminal, cleaved

binding result [3]: binds
B2: NUB1^Δ1–175 (domain or fragment)
chain: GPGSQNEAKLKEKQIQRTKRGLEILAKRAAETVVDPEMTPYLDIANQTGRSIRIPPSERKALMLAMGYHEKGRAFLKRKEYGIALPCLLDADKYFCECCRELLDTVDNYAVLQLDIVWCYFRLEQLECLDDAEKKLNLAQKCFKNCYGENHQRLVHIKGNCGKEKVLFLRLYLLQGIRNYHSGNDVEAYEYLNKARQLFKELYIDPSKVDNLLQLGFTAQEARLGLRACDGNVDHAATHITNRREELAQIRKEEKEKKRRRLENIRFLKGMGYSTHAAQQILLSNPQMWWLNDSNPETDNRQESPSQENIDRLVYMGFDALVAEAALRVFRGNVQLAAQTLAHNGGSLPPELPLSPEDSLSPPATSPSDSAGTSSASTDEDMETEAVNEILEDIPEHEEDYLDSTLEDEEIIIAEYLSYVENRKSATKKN
notes: overhang left at the N terminus after removal of GST by precision (3C) protease; also called linker-trap domain; source: E. coli BL21*, purified (GSH resin, GST–3C protease cleavage, gel filtration); not shown: GST, N-terminal, cleaved
